Experimental data published in the Human Domainome abundance scans (Beltran et al. 2025).
± gives the uncertainty stated by the source.

B1: Calcium-binding protein 2, residues 155 to 219; numbered along this chain, Q9NPB3 (parent)
chain: RELRDAFREFDTNGDGRISVGELRAALKALLGERLSQREVDEILQDVDLNGDGLVDFEEFVRMMS

Variants of: B1
Assay: abundance fitness (aPCA) (normalised: wild type 0, dead -1); higher = more abundant; growth selection in yeast, the domain comes from the species named
Conditions: Homo sapiens

Row | Variant | abundance fitness
1 | F60Q | -0.899 ± 0.12
2 | F60E | -0.672 ± 0.094
3 | F60M | -0.116 ± 0.27
4 | F60T | -0.306 ± 0.096
5 | F60S | -0.326 ± 0.073
6 | F60A | -0.471 ± 0.074
7 | F60C | -0.176 ± 0.077
8 | L44V | 0 ± 0.087
9 | L44R | -0.178 ± 0.09
10 | L44H | 0.097 ± 0.3
11 | L44M | -0.219 ± 0.21
12 | L44T | 0 ± 0.12
13 | L44W | -0.496 ± 0.25
14 | L44P | -0.323 ± 0.17
15 | K28S | -0.017 ± 0.074
16 | K28A | 0.127 ± 0.31
17 | K28L | -0.07 ± 0.053
18 | V40Q | 0.063 ± 0.071
19 | V40I | 0.047 ± 0.19
20 | V40M | 0.048 ± 0.091
21 | V40H | 0.038 ± 0.095

Row | Variant | abundance fitness
22 | V40A | 0.006 ± 0.07
23 | V40S | -0.011 ± 0.073
24 | V40F | -0.086 ± 0.24
25 | L31A | 0.127 ± 0.059
26 | L31I | -0.061 ± 0.14
27 | L31Q | 0.086 ± 0.082
28 | L31R | -0.043 ± 0.091
29 | L31H | -0.021 ± 0.13
30 | L31G | 0.076 ± 0.048
31 | L31M | 0.169 ± 0.067
32 | G53T | -0.107 ± 0.11
33 | G53I | -0.147 ± 0.12
34 | G53P | -0.188 ± 0.085
35 | G53H | 0.011 ± 0.11
36 | G53R | -0.397 ± 0.057
37 | G53W | -0.361 ± 0.069
38 | D5R | -0.119 ± 0.038
39 | D5V | -0.19 ± 0.051
40 | D5P | -0.665 ± 0.064
41 | D5N | -0.034 ± 0.059
42 | D5A | -0.226 ± 0.049

Row | Variant | abundance fitness
43 | E9T | 0.039 ± 0.074
44 | E9H | -0.429 ± 0.37
45 | E9M | -0.135 ± 0.092
46 | E9G | -0.016 ± 0.095
47 | E9Y | -0.244 ± 0.22
48 | E9D | 0.003 ± 0.12
49 | E9S | -0.133 ± 0.046
50 | N13P | -0.811 ± 0.093
51 | N13G | -0.693 ± 0.12
52 | N13V | -0.668 ± 0.071
53 | N13M | -0.797 ± 0.093
54 | N13K | -0.676 ± 0.13
55 | N13A | -0.537 ± 0.084
56 | N13E | -0.459 ± 0.1
57 | N13Y | -1.12 ± 0.34
58 | S36H | -0.564 ± 0.28
59 | S36N | -0.197 ± 0.14
60 | S36R | -0.004 ± 0.057
61 | S36E | 0.024 ± 0.07
62 | S36V | 0.07 ± 0.064
63 | S36P | -0.107 ± 0.065

Row | Variant | abundance fitness
64 | L35I | 0.087 ± 0.15
65 | L35F | -0.257 ± 0.12
66 | L35Y | 0.015 ± 0.16
67 | L35V | -0.015 ± 0.089
68 | L35D | 0.064 ± 0.076
69 | L35T | 0.028 ± 0.14
70 | R8A | -0.04 ± 0.058
71 | R8K | -0.068 ± 0.15
72 | R8M | -0.043 ± 0.083
73 | R8E | -0.004 ± 0.1
74 | S19R | -0.687 ± 0.074
75 | S19G | -0.045 ± 0.1
76 | S19W | -0.58 ± 0.11
77 | S19N | 0.049 ± 0.081
78 | S19T | 0.227 ± 0.068
79 | A6G | -0.328 ± 0.048
80 | A6H | -0.479 ± 0.2
81 | A6W | -0.111 ± 0.053
82 | T12V | -0.351 ± 0.072
83 | T12G | -0.04 ± 0.054
84 | T12C | -0.148 ± 0.1
